These results are taken from patent publication US10767162B2, “Methods for differentiation” (PRESIDENT AND FELLOWS OF HARVARD COLLEGE, priority 2014, dated 2020).

Assay [1] deals with iNIL ES cells (Ngn2, Isl1, Lhx3). As to the kind of experiment: Spinal motor neuron differentiation of iNIL ES cells, beta-3 tubulin (Tubb3) expression. It counts as cell-based, mouse. To be noted: added back into growth factor-free media. The text has this:
FIGS. 11A-11B depict spinal motor neurons. […] FIG. 11B depicts a time course of gene expression for neuronal lineage factors and motor neuron terminal differentiation markers in growth factor-free (N2B27) media.
To generate spinal motor neurons, a mouse ES cell line that overexpressed a combination of three transcription factor lineage specifiers (Ngn2, Isl1, Lhx3) was used. This combination was previously shown to specify spinal motor neuron identity (4). These iNIL cells, as they are also called, upon doxycycline stimulation express the three transcription factors from a single open reading frame coupled by 2A peptides. Growth factor withdrawal was used as the method of cell cycle manipulation in the experiments described in this Example.
As expected from the results on skeletal muscle myotubes, neurons rapidly formed from ES cells upon switching to different types of growth factor-free media. […] Tubb3 expression was confirmed by immunostaining. When either of the ES cell growth factors LIF or Bmp4 were added back into growth factor-free media, there was a strong block on neuronal differentiation.
ESC differentiation. Twenty-four hours before starting, ESCs are trypsinized and spread out as monolayer onto gelatin in standard ES media. […]
(§1) RNA isolation and qPCR. […] Quantitative PCR was performed using Bio-rad's SYBR™ green Supermix. […]

The subject of assay [2] is Hnf4α-overexpressing ES cells. As to the kind of experiment: Hepatoblast-like differentiation of Hnf4α-overexpressing ES cells, alphafetoprotein (AFP) expression. To be noted: added to growth factor-free media; day 4. It counts as cell-based.
Text: FIGS. 13A-13B depict hepatoblast-like cells. […] Alpha-fetoprotein mRNA expression after 4 days in media of different growth factor content. FIG. 13B depicts a time course of gene expression for hepatic lineage factors and hepatocyte markers in growth factor-free (N2B27) media.
One essential lineage specifying factor for hepatocytes is hepatic nuclear factor 4α (Hnf4α)(6). Switching of Hnf4α-overexpressing ES cells to growth factor-free or growth factor-reduced media led to the activation of a subset of hepatic genes. At day 0, LIF and doxycycline were removed and the media was either switched or kept to 15% FBS. By day 4, there were high levels of alphafetoprotein (AFP) that could be detected in the cells differentiated in the growth factor-free or growth factor-reduced media and less than 10% the level of AFP in cells in 15% FBS (FIG. 13A and FIG. 16). AFP expression could be confirmed by immunostaining. While this activation by growth factor withdrawal was similar to the pattern seen in previous cell types, there was an additional interesting point of variation compared to other lineages examined so far. […] Albumin production was also detected, as was Sox17, Pparα, Cdh3, Tbx3, Krt18, Hhex, Lrh1, C/EBPα, Hnf1a, and Hnf1b. […]
as §1

The subject of assay [3] is ES cell line that constitutively over-expressed the transcription factor MyoD. As to the kind of experiment: Skeletal muscle differentiation efficiency of MyoD ES cells, myosin heavy chain (MHC) immunostaining. It counts as cell-based, mouse. The text has this:
FIG. 2A depicts a differentiation time course of ES cells to skeletal muscle when exposed to low serum vs high serum conditions. […] LIF was removed at Day 0. Low serum was then initiated at different starting times beginning with Day 0. Cells were then fixed and immunostained for myosin heavy chain (MHC) expression. Differentiating cells in high serum were continuously split to prevent overgrowth. FIG. 2B depicts a comparison of differentiation efficiency generated by two types of defined media (N2B27) and 20% KOSR, low serum media (2% horse serum+insulin), and high serum media (15% FBS). Cells were removed from standard ES media (LIF and serum) and incubated in the specified media starting from Day 0 to Day 4. Continuation of LIF (1000 U/ml) or addition of Bmp4 (10 ng/ml) results in a strong block to muscle differentiation.
To probe the effect of the cell cycle on differentiation an ES cell line was used that constitutively over-expressed the transcription factor MyoD driven off an EF1alpha promoter (5) activated by tamoxifen-induced Cre recombination. […]
However any implication of growth factor effects through the manipulation of serum can be fraught with the inconsistencies and complexities of serum. […] Use of both media in ES cells led to activation of MyoD and terminal myogenesis similar to the 2% low serum media, with some improvement (FIG. 2B; assessed on Day 4). […]

B1: Bmp4: ES cell growth factor, promotes Id protein family expression (protein, UniProt P21275 293-408, looked up)
Bone morphogenetic protein 4: SPKHHPQRSRKKNKNCRRHSLYVDFSDVGWNDWIVAPPGYQAFYCHGDCPFPLADHLNSTNHAIVQTLVNSVNSSIPKACCVPTELSAISMLYLDEYDKVVLKNYQEMVVEGCGCR
Turning to B1, in assay [1], the neuronal differentiation entry is “strong block”. The AFP expression result in assay [2] was “did not reduce”. For the same molecule, the “MHC+ nuclei (differentiation) when added back to N2B27” value in assay [3] (LIF 1000 U/ml or Bmp4 10 ng/ml added back to N2B27, Day 4) came to 0%. Further, the muscle differentiation result in assay [3] (continuation of LIF (1000 U/ml) or addition of Bmp4 (10 ng/ml), Day 0 to Day 4) is given as “strong block”.
